The nanobody polyreactivity screen of Harvey et al. (2022)

Assay: yeast display, Sf9 membrane polyspecificity reagent, FACS + sequencing; frameworks hold sequencing errors
Procedure, shortened: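 Nanobodies from a synthetic yeast display library (Saccharomyces cerevisiae BJ5465), induced 36–48 hours with galactose, were stained 1 hour at 4 °C with 10% biotinylated, detergent-solubilized Sf9 membrane reagent, enriched on streptavidin microbeads, then FACS-sorted. Anti-HA (expression) and streptavidin (reagent binding) fluorescence set low and high (top ~1%) gates. Polyreactivity labels come from the gate of origin. Genes were colony-PCR amplified, MiSeq 2 × 250 sequenced and filtered by CDR length.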

| Sequence | polyreactivity (PSR sort gate) |
| --- | --- |
| QVQLVESGGGLVQAGGSLRLSCAASGRIFGNYAKGWYRQAPGKERELVAAISGGGSTYYADSVKGRFTISRDNAKNTVYLQMNSLKPEDTAVYYCAARFLSSVFGRKGGYWGQGTQVTVSS | low polyreactivity |
| QVQLVESGGGLVQAGGSLRLSCAASGRIFGNYAMGWYRQAPGKARELVAAITSGARTYYADSVKGRFTISRDNAKNTVYLQMNSLKPEDTAVYYCAAYHKSYSYRYDYWGQGTQVTVSS | high polyreactivity |
| QVQLVESGGGLVQAGGSLRLSCAASGRIFGPNAMGWYRQAPGKERELVAAISTSGGRTYYADSVKGRFTISRDNAKNTVYLQMNSLKPEDTAVYYCAADRSRWGQGTQVTVSS | high polyreactivity |
| QVQLVESGGGLVQAGGSLRLSCAASGRIFGPYAMGWYRQAPGKERELGASISGGGSTNYADSVKGRFTISRDNAKNTVYLPMNSVKPEDTAVYYCAADVYYQYWGWWPYDYWGQGTQVTVSS | low polyreactivity |
| QVQLVESGGGLVQAGGSLRLSCAASGRIFGPYAMGWYRQAPGKERELVASISYSGGSTYYADSVKGRFTISRDNAKNTVYLQMNSLKPEDTAVYYCAKGGYWRGYNYYYWGQGTQVTVSS | low polyreactivity |
| QVQLVESGGGLVQAGGSLRLSCAASGRIFGPYTMGWYRQAPGKERELVAAINGRGGSTYYADSVKGRFTISRDNAKNTVYLQMNSLKPEDTAVYYFNASPTWVYSRVYGYNYWGQGTQVTVSS | low polyreactivity |
| QVQLVESGGGLVQAGGSLRLSCAASGRIFGPYTMGWYRQAPGKERELVAGITKSGSSTYYADSVKGRFTISRDNAKNTVYLQMNSLKPEDTAVYYCAADVYQVRGYYWGQGTQVTLSS | high polyreactivity |
| QVQLVESGGGLVQAGGSLRLSCAASGRIFGPYVMGWYRQAPGKERELVAAINRRGGSTYYADSVKGRFTISRDNAKNTVYLQMNSLKPEDTAVYYCAAKKATVVYRMEYWGQGTQVTVSS | high polyreactivity |
| QVQLVESGGGLVQAGGSLRLSCAASGRIFGQNAMGWYRQAPGKERELVADITGSGGRTYYADSVKGRFTISRDNAKNTVYFQMNSLKPEDTAVYYCAVRVTSYYRTMVYWGQVTQVTVSS | low polyreactivity |
| QVQLVESGGGLVQAGGSLRLSCAASGRIFGQYAMGWYRQAPGKDRELVAAISWRGGTTYYADSVKGRFTISRDNAKNTVYLQMNSLKPEDTAVYYCNADVWVYPYDYWGQGTQVTVSS | low polyreactivity |
| QVQLVESGGGLVQAGGSLRLSCAASGRIFGQYAMGWYRQAPGKERELVAAISWRGGTTYYADSVKGRFTISRDNAKNTVYLKMNSLKPVDTAVYYCNADVWVYPYDYWGQGTQVTVSS | low polyreactivity |
| QVQLVESGGGLVQAGGSLRLSCAASGRIFGQYAMGWYRQAPGKERELVASIRSGGSTNYADSVKGRFTISRDNAKNTVYLQMNSLKPADSAVYYCNRRSGRTSRFHDYGYWGQGTQVTVSS | high polyreactivity |
| QVQLVESGGGLVQAGGSLRLSCAASGRIFGRDMGWYRQAPGKERELVATITWRGGSTYYADSVKGRFTISRDNAKNTVYLQMNSLKPEDTAVYYCTAALSHDYWHYRLGYWGQGTQVTVSS | low polyreactivity |
| QVQLVESGGGLVQAGGSLRLSCAASGRIFGRNAMGWYRPAPGKERELVADISYRGGRPYYADSVKGRFTISRDNAKNTVYLQMNSLKPEDTAVYYCNAGVYRSGGRKYDYWGQGTQVTVSS | high polyreactivity |
| QVQLVESGGGLVQAGGSLRLSCAASGRIFGRNAMGWYRQAPGKEREFVAGITTNGGRTYYADSVKGRFTISRDYAKNSVFLQMNSLIPEDTAVYYWAAVRYYFLKYYYWGQGTQVTVSS | high polyreactivity |
| QVQLVESGGGLVQAGGSLRLSCAASGRIFGRNAMGWYRQAPGKEREFVARIRTSGGSTYYADSVKGRFTISRDNAKNTVYLQMISLTPEDTAVYYCAAAVYTSARGYDYWGQGTQVTVSS | high polyreactivity |
| QVQLVESGGGLVQAGGSLRLSCAASGRIFGRNAMGWYRQAPGKERELVAGISSGGTTDYADSVKGRFTISRDNAKNTVYLQMNSLKPEDTAVYYCNDGYAYDDQTYYLGESDYWGQGTQVTVSS | low polyreactivity |
